Tested on: Escherichia coli TOP10
Experiment: shrunken log2 fold change of peptide-encoding DNA abundance (4.5 h post-induction vs induction); higher = less antimicrobial activity (less host growth inhibition)
Conditions: time post-induction: 4.5 h; library: site-saturation at positions 5, 18, 19, 20
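Also: peptides expressed intracellularly from a pBAD plasmid library in pooled LB shake-flask culture, induced with 0.3% L-arabinose, DNA abundance read by NGS, three biological replicates, DESeq2 with apeglm shrinkage.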

| Sequence | shrunken log2 fold change |
| --- | --- |
| RRIRSRPPRLPRPRPRPSSRPRP | -0.288 |
| RRIRRRPPRLPRPRPRPDHRPRP | -0.00663 |
| RRIRERPPRLPRPRPRPWMSPRP | -0.0212 |
| RRIRMRPPRLPRPRPRPSVPPRP | -0.0568 |
| RRIRLRPPRLPRPRPRPDHYPRP | 0.101 |
| RRIRGRPPRLPRPRPRPPFYPRP | 0.397 |
| RRIRMRPPRLPRPRPRPGMHPRP | 0.186 |
| RRIRTRPPRLPRPRPRPPFCPRP | 0.188 |
| RRIRSRPPRLPRPRPRPWHWPRP | 0.211 |
| RRIRMRPPRLPRPRPRPQAAPRP | 0.87 |
| RRIRQRPPRLPRPRPRPMSHPRP | 0.00245 |
| RRIRNRPPRLPRPRPRPMIEPRP | 0.00437 |
| RRIRCRPPRLPRPRPRPMGDPRP | -0.0113 |
| RRIRARPPRLPRPRPRPLNGPRP | 0.0986 |
| RRIRHRPPRLPRPRPRPMARPRP | 0.0467 |
| RRIRNRPPRLPRPRPRPIQSPRP | -0.216 |
| RRIRYRPPRLPRPRPRPGQMPRP | -0.553 |
| RRIRTRPPRLPRPRPRPIAFPRP | -0.0138 |
| RRIRSRPPRLPRPRPRPPKSPRP | 0.271 |
| RRIRHRPPRLPRPRPRPPRNPRP | 0.105 |
| RRIRFRPPRLPRPRPRPRFGPRP | -0.0656 |
| RRIRFRPPRLPRPRPRPEMHPRP | -0.195 |
| RRIRERPPRLPRPRPRPIYEPRP | -0.236 |

| Sequence | shrunken log2 fold change |
| --- | --- |
| RRIRQRPPRLPRPRPRPQHAPRP | -0.476 |
| RRIRWRPPRLPRPRPRPKYQPRP | -0.231 |
| RRIRTRPPRLPRPRPRPEIQPRP | -0.00275 |
| RRIRCRPPRLPRPRPRPALQPRP | 0.313 |
| RRIRWRPPRLPRPRPRPARSPRP | 0.252 |
| RRIRGRPPRLPRPRPRPAFAPRP | 0.89 |
| RRIRIRPPRLPRPRPRPMCFPRP | -0.343 |
| RRIRFRPPRLPRPRPRPQMFPRP | -0.103 |
| RRIRSRPPRLPRPRPRPVCIPRP | -0.414 |
| RRIRVRPPRLPRPRPRPVPYPRP | -0.0265 |
| RRIRDRPPRLPRPRPRPEWNPRP | 0.546 |
| RRIRPRPPRLPRPRPRPAAMPRP | 0.302 |
| RRIRIRPPRLPRPRPRPKRSPRP | -0.335 |
| RRIRTRPPRLPRPRPRPPDIPRP | -0.118 |
| RRIRCRPPRLPRPRPRPHSGPRP | 0.00506 |
| RRIRLRPPRLPRPRPRPIGVPRP | -0.0539 |
| RRIRLRPPRLPRPRPRPNDVPRP | -0.111 |
| RRIRSRPPRLPRPRPRPQYWPRP | -0.397 |
| RRIRSRPPRLPRPRPRPAGWPRP | 0.795 |
| RRIRGRPPRLPRPRPRPGITPRP | 0.356 |
| RRIRYRPPRLPRPRPRPNHLPRP | -1.32 |
| RRIRMRPPRLPRPRPRPQWLPRP | 0.351 |
| RRIRCRPPRLPRPRPRPMDEPRP | 0.348 |

| Sequence | shrunken log2 fold change |
| --- | --- |
| RRIRGRPPRLPRPRPRPDSIPRP | 0.495 |
| RRIRERPPRLPRPRPRPHQTPRP | -0.0225 |
| RRIRMRPPRLPRPRPRPRPRPRP | 1.68 |
| RRIRPRPPRLPRPRPRPHVYPRP | -0.552 |
| RRIRGRPPRLPRPRPRPDFQPRP | 1.01 |
| RRIRVRPPRLPRPRPRPLCLPRP | -0.376 |
| RRIRDRPPRLPRPRPRPSFSPRP | -0.0351 |
| RRIRARPPRLPRPRPRPMCVPRP | 0.188 |
| RRIRCRPPRLPRPRPRPDGIPRP | -0.0101 |
| RRIRDRPPRLPRPRPRPARPPRP | 0.569 |
| RRIRTRPPRLPRPRPRPFGDPRP | 0.0755 |
| RRIRMRPPRLPRPRPRPGKTPRP | 0.769 |
| RRIRVRPPRLPRPRPRPNFCPRP | -0.139 |
| RRIRWRPPRLPRPRPRPEYPPRP | 0.208 |
| RRIRTRPPRLPRPRPRPIANPRP | 0.207 |
| RRIRGRPPRLPRPRPRPAPNPRP | 0.829 |
| RRIRARPPRLPRPRPRPLPNPRP | 0.286 |
| RRIRDRPPRLPRPRPRPTKEPRP | -0.0917 |
| RRIRLRPPRLPRPRPRPKDAPRP | -0.11 |
| RRIRIRPPRLPRPRPRPIWMPRP | -0.176 |
| RRIRGRPPRLPRPRPRPCPMPRP | 1.17 |
| RRIRQRPPRLPRPRPRPCWIPRP | -0.209 |
| RRIRIRPPRLPRPRPRPMCEPRP | -0.00819 |

| Sequence | shrunken log2 fold change |
| --- | --- |
| RRIRRRPPRLPRPRPRPLPCPRP | -0.0345 |
| RRIRHRPPRLPRPRPRPFMKPRP | -0.00214 |
| RRIRLRPPRLPRPRPRPQSYPRP | -0.242 |
| RRIRFRPPRLPRPRPRPKYYPRP | -0.386 |
| RRIRFRPPRLPRPRPRPVIIPRP | -0.415 |
| RRIRDRPPRLPRPRPRPGEGPRP | 1.41 |
| RRIRDRPPRLPRPRPRPYAPPRP | -0.477 |
| RRIRNRPPRLPRPRPRPVQYPRP | -0.000777 |
| RRIRKRPPRLPRPRPRPELNPRP | 2.26 |
| RRIRVRPPRLPRPRPRPNANPRP | 0.063 |
| RRIRPRPPRLPRPRPRPEERPRP | -0.0232 |
| RRIRARPPRLPRPRPRPLTGPRP | 0.172 |
| RRIRYRPPRLPRPRPRPIKHPRP | -0.693 |
| RRIRVRPPRLPRPRPRPSKGPRP | -0.276 |
| RRIRIRPPRLPRPRPRPEGQPRP | -0.0492 |
| RRIRERPPRLPRPRPRPQTSPRP | -0.37 |
| RRIRQRPPRLPRPRPRPPLKPRP | -0.0174 |
| RRIRKRPPRLPRPRPRPMEDPRP | -0.00186 |
| RRIRSRPPRLPRPRPRPDAGPRP | 0.569 |
| RRIRARPPRLPRPRPRPGFTPRP | 0.204 |
| RRIRYRPPRLPRPRPRPFHLPRP | -0.532 |
| RRIRARPPRLPRPRPRPAKKPRP | -0.0777 |

Source: the supplement of paper PMC9112550, “Optimization of the antimicrobial peptide Bac7 by deep mutational scanning” (BMC Biology, 2022)
